# Source: US20240084030A1 (University of California, published 2024)
# T1: Nectin-4 (UniProt Q96NY8 32-510, limits assumed)
# T1 construct: whole, on cells; Endogenous receptor on HT-1376 cells
# T1 sequence (looked up): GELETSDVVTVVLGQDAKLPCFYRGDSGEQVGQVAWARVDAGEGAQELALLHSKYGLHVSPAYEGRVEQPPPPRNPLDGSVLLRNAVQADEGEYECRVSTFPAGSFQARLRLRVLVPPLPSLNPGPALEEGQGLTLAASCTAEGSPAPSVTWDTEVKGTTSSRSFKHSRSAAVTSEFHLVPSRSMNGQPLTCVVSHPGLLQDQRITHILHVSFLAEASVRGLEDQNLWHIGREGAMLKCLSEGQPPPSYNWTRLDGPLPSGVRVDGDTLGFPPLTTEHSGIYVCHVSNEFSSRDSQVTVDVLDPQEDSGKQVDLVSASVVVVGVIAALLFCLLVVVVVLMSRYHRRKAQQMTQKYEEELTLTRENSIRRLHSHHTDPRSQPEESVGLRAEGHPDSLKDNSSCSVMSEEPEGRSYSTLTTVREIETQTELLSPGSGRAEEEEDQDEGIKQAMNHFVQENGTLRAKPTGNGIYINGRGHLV
# T2: CDCP1 (UniProt Q9H5V8 30-836, limits assumed)
# T2 construct: whole, on cells; Endogenous protein on HT-1376 cells; also called cell surface CDCP1
# T2 sequence (looked up): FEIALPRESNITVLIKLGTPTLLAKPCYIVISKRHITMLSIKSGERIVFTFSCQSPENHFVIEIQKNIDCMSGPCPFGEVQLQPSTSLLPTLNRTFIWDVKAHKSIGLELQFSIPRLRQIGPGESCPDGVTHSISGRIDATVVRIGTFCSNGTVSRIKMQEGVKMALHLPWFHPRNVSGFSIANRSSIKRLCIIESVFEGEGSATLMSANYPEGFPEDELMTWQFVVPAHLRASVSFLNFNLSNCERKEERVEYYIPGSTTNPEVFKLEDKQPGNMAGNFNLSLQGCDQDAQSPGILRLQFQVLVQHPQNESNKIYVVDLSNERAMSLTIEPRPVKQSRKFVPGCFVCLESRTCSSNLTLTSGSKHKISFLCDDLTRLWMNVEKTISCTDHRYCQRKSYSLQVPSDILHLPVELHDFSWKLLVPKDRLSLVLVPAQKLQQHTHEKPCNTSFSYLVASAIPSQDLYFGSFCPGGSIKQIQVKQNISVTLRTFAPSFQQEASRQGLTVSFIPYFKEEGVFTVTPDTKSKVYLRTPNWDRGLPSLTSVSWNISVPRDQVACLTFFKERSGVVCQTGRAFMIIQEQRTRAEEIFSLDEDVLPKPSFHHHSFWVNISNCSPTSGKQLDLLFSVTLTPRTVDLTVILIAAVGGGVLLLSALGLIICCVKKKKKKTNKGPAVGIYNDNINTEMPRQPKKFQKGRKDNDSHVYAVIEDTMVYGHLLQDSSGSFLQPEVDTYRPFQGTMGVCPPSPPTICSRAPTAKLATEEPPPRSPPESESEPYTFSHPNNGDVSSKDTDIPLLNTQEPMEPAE
# B1: Enfortumab-4A06 bispecific antibody (bispecific antibody)
# heavy 1: not shown
# light 1: DIQMTQSPSSVSASVGDRVTITCRASQGISGWLAWYQQKPGKAPKFLIYAASTLQSGVPSRFSGSGSGTDFTLTISSLQPEDFATYYCQQANSFPPTFGGGTKVEIKRTVAAPSVFIFPPSDEQLKSGTASVVCLLNNFYPREAKVQWKVDNALQSGNSQESVTEQDSKDSTYSLSSTLTLSKADYEKHKVYACEVTHQGLSSPVTKSFNRGEC
# heavy 2: EISEVQLVESGGGLVQPGGSLRLSCAASGFNLSYYYIHWVRQAPGKGLEWVASIYSSSSYTSYADSVKGRFTISADTSKNTAYLQMNSLRAEDTAVYYCARAYYGFDYWGQGTLVTVSSASTKGPSVFPLAPSSKSTSGGTAALGCLVKDYFPEPVTVSWNSGALTSGVHTFPAVLQSSGLYSLSSVVTVPSSSLGTQTYICNVNHKPSNTKVDKKVEPKSCDKTHTCPPCPAPELLGGPSVFLFPPKPKDTLMISRTPEVTCVVVDVSHEDPEVKFNWYVDGVEVHNAKTKPREEQYNSTYRVVSVLTVLHQDWLNGKEYKCKVSNKALPAPIEKTISKAKGQPREPQVYTLPPIRELMTSNQVSLSCAVKGFYPSDIAVEWESNGQPENNYKTTPPVLDSDGSFFLVSKLTVDKSRWQQGNVFSCSVMHEALHNHYTQKSLSLSPGK
# light 2: DIQMTQSPSSLSASVGDRVTITCRASQSVSSAVAWYQQKPGKAPKLLIYSASSLYSGVPSRFSGSRSGTDFTLTISSLQPEDFATYYCQQSYYYYPITFGQGTKVEIKRTVAAPSVFIFPPSDSQLKSGTASVVCLLNNFYPREAKVQWKVDNALQSGNSQESVTEQDSKDSTYSLSSTLTLSKADYEKHKVYACEVTHQGLSSPVTKSFNRGECGGSDYKDDDDK
# notes: It has four different chains; also called Enfortumab (Nectin-4)-4A06 (CDCP1); Enfortumab-4A06 antibody
# Columns and labels:
# Nectin-4 = target: T1, Nectin-4; experiment: statement in Example 2; no direct binding assay, only degradation on HT-1376 cells
# Protocol: (§1) After incubation at 37° C. for the designated time point, cells were washed with phosphate-buffered saline (PBS), lifted with versene, and harvested by centrifugation at 300×g for 5 min at 4° C. Samples were then tested by western blotting or flow cytometry to quantify protein levels.
# (§2) Western blotting: Cell pellets were lysed with 1×RIPA buffer containing cOmplete mini protease inhibitor cocktail (Sigma-Aldrich) at 4° C. for 40 min. Lysates were centrifuged at 16,000×g for 10 min at 4° C. and protein concentrations were normalized using BCA assay (Pierce). 4×NuPAGE LDS sample buffer (Invitrogen) and 2-mercaptoethanol (BME) was added to the lysates and boiled for 10 min. Equal amounts of lysates were loaded onto a 4-12% Bis-Tris gel and ran at 200V for 37 min. The gel was incubated in 20% ethanol for 10 min and transferred onto a polyvinylidene difluoride (PVDF) membrane. The membrane was blocked in PBS with 0.1% Tween-20+5% bovine serum albumin (BSA) for 30 min at room temperature with gentle shaking. Membranes were incubated overnight with primary antibodies at respective dilutions at 4° C. with gentle shaking in PBS+0.2% Tween-20+5% BSA. […] Band intensities were quantified using Image Studio Software (LI-COR). […]
# CDCP1 = target: T2, CDCP1; experiment: as above
# Protocol: as §1, §2
binder,measurement,setting,value
B1,binding result,Nectin-4,binds
same,binding result,CDCP1,binds
